Consider nine proteins from paper PMC8703375, “Polar Interactions at the Dimer–Dimer Interface of Methionine Adenosyltransferase MAT I Control Tetramerization” (International Journal of Molecular Sciences, 2021).

“And” between values parts separate entries of the source, which are not always exact repeats. Equal entries are not always repeated.

Data set [1] deals with the molecule itself. Briefly: hydrophobic chromatography on phenyl Sepharose; soluble fractions of E. coli at 0.5 mg/mL (2 mL) on phenyl Sepharose in 50 mM Tris/HCl pH 8, 10 mM MgSO4, 1 mM EDTA; tetramers in the flowthrough, dimers eluted with 50% (v/v) DMSO; dot-blot with anti-MATα1 antiserum, dimer/tetramer ratio by densitometry.
Data set [2] concerns the molecule itself. The data set can be described thus: SEC; analytical gel filtration (AGFC): soluble fractions of E. coli at 0.5 mg/mL (100 µL) on Superose 12 10/30 HR in 50 mM Tris/HCl pH 8, 10 mM MgSO4, 1 mM EDTA, 150 mM KCl, 0.3 mL/min; fractions read by dot-blot with anti-MATα1 antiserum; homo-dimers and homo-tetramers separated by size.

B1: MATα1 R85E mutant (enzyme)
chain: not shown
notes: methionine adenosyltransferase catalytic subunit MATα1, rat; ORF of pSSRL-T7N with a point mutation; source: E. coli BL21(DE3), IPTG-induced, in soluble fraction
Turning to B1, the stoichiometry N (commonly the number of molecules, sites or subunits per partner or assembly) in data set [1] came to 2.

B2: MATα1 E112L mutant (enzyme)
chain: not shown
notes: as for B1
For the protein B2, the “stoichiometry N” value in data set [1] was 4.

B3: MATα1 N106A mutant (enzyme)
chain: not shown
notes: as for B1
As to B3, in data set [1], the “stoichiometry N” value worked out at 4.

B4: MATα1 Q81T mutant (enzyme)
chain: not shown
notes: as for B1
Turning to B4, the “stoichiometry N” value in data set [1] stood at 4.

B5: MATα1 R85L mutant (enzyme)
chain: not shown
notes: as for B1
Regarding B5, in data set [1], the “stoichiometry N” value was 2 and 4.

B6: MATα1 R85L–T63V double mutant (enzyme)
chain: not shown
notes: methionine adenosyltransferase catalytic subunit MATα1, rat; ORF of pSSRL-T7N with two point mutations; source: E. coli BL21(DE3), IPTG-induced, in soluble fraction
Regarding B6, the “stoichiometry N” value in data set [1] is 2.

B7: MATα1 T63V mutant (enzyme)
chain: not shown
notes: as for B1
In the case of B7, the “stoichiometry N” value in data set [1] came out at 2.

B8: MATα1 R85L–E112L double mutant (enzyme)
chain: not shown
notes: as for B6
As for B8, in data set [1], the “stoichiometry N” value came out at 2.

B9: wild-type MATα1 (SSRL), rat methionine adenosyltransferase catalytic subunit (enzyme)
chain: not shown
notes: methionine adenosyltransferase catalytic subunit MATα1, rat; the rat MATα1 ORF in plasmid pSSRL-T7N; Found as homo-dimers (MAT III) and homo-tetramers (MAT I) in an equilibrium that depends on protein concentration; also called MAT I (homo-tetramer); MAT III (homo-dimer); source: E. coli BL21(DE3), IPTG-induced, in soluble fraction
Take B9: the “stoichiometry N” value in data set [2] is 2 and 4.
